Values belong to the binder of their own block, whether it stands above or below them.
Experiments:
[1] = target: T1, rHuman Erythropoietin R/Fc Chimera, CF (R&D Systems Cat#963-ER) (human, UniProt P19235 25-250); assay: Multispot ECL (MSD) titration; antigen spotted on plate; Fab 24.5 nM; blank spot 149
T1 construct: Bought Fc chimera; also called EPO R/Fc; EPO R; Fc part of the bought chimera not given
T1 sequence (looked up): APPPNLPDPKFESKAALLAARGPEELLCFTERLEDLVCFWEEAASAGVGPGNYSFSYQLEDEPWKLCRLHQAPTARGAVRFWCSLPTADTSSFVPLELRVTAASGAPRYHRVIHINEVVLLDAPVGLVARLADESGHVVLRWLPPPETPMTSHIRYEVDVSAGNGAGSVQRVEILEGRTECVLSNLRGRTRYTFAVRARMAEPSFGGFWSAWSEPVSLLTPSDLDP

[2] = target: T2, rHuman P-Cadherin/Fc Chimera, CF (R&D Systems Cat#861-PC) (human, UniProt P22223 108-654); assay: as above
T2 construct: Bought Fc chimera; Fc part of the bought chimera not given

[3] = target: T3, rHuman ErbB2/Fc Chimera, CF (R&D Systems Cat#1129-ER) (human, UniProt P04626 23-652); assay: Multispot ECL (MSD) assay, antigen spotted on plate, Fab at 0.312 µM; blank spot 1977
T3 construct: Bought recombinant protein; also called human epidermal growth factor 2 receptor (ErbB2); Fc part of the bought chimera not given

[4] = target: T4, Recombinant Human DLL4 (R&D Systems Cat#1506-D4/CF) (human, UniProt Q9NR61 27-524); assay: as above
T4 construct: Bought recombinant protein; also called delta-like protein 4; rHuman DLL4

[5] = target: T5, rHuman IGF-1 sR, (IGF-1 sR), CF (R&D Systems Cat#391-GR) (human, UniProt P08069 31-932); assay: as above
T5 construct: Bought recombinant soluble receptor; also called insulin-like growth factor-1 soluble receptor

[6] = target: T6, rHuman EGF R/Fc Chimera, CF (R&D Systems Cat#344-ER) (human, UniProt P00533 25-645); assay: as above
T6 construct: Bought recombinant protein; also called epidermal growth factor receptor (EGF R); Fc part of the bought chimera not given

[7] = target: T7, rHuman CD44/Fc Chimera, CF (R&D Systems Cat#3660-CD) (human, UniProt P16070 21-220); assay: as above
T7 construct: Bought recombinant protein; Fc part of the bought chimera not given

[8] = target: T8, rHuman P-Cadherin/Fc Chimera, CF (R&D Systems Cat#861-PC) (human, UniProt P22223 108-654); assay: as above
T8 construct: Bought recombinant protein; Fc part of the bought chimera not given

[9] = target: T9, rHuman HGF R/c-MET/Fc Chimera, CF (R&D Systems Cat#358-MT/CF) (human, UniProt P08581 25-932); assay: as above
T9 construct: Bought recombinant protein; also called HGF R/Fc; hepatocyte growth factor receptor (HGF R/c-Met); Fc part of the bought chimera not given

[10] = target: T10, rHuman Notch-1/Fc Chimera, CF (R&D Systems Cat#3647-TK) (human, UniProt P46531 19-526); assay: as above
T10 construct: Bought recombinant protein; Fc part of the bought chimera not given

[11] = target: T11, rHuman Notch-1/Fc Chimera, CF (R&D Systems Cat#3647-TK) (human, UniProt P46531 19-526); assay: MSD multispot ECL, antigen spotted, Fab 9.3 nM; blank spot 287
T11 construct: Bought reagent

[12] = target: T12, rHuman IGF-1 sR, (IGF-1 sR), CF (R&D Systems Cat#391-GR) (human, UniProt P08069 31-932); assay: as above
T12 construct: Bought soluble receptor; also called insulin-like growth factor-1 soluble receptor

[13] = target: T13, rHuman CD44/Fc Chimera, CF (R&D Systems Cat#3660-CD) (human, UniProt P16070 21-220); assay: as above
T13 construct: Bought reagent

[14] = target: T14, rHuman EGF R/Fc Chimera, CF (R&D Systems Cat#344-ER) (human, UniProt P00533 25-645); assay: as above
T14 construct: Bought reagent; also called epidermal growth factor receptor

[15] = target: T15, rHuman ErbB2/Fc Chimera, CF (R&D Systems Cat#1129-ER) (human, UniProt P04626 23-652); assay: as above
T15 construct: Bought reagent; also called human epidermal growth factor 2 receptor

[16] = target: T16, rHuman HGF R/c-MET/Fc Chimera, CF (R&D Systems Cat#358-MT/CF) (human, UniProt P08581 25-932); assay: as above
T16 construct: Bought reagent; also called HGF R/Fc; hepatocyte growth factor receptor

[17] = target: T17, Recombinant Human DLL4 (R&D Systems Cat#1506-D4/CF) (human, UniProt Q9NR61 27-524); assay: as above
T17 construct: Bought recombinant protein; also called rHuman DLL4; delta-like protein 4

[18] = target: T18, rHuman Erythropoietin R/Fc Chimera, CF (R&D Systems Cat#963-ER) (human, UniProt P19235 25-250); assay: as above
T18 construct: Bought reagent; also called EPO R/Fc; Epo R
T18 sequence (looked up): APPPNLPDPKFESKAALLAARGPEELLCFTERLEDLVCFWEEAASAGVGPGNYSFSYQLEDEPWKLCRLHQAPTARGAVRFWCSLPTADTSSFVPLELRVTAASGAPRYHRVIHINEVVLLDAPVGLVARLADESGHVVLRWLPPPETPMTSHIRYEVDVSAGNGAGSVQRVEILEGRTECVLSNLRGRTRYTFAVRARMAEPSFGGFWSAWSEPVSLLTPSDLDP

- ECL signal [1]: 4530
- ECL signal [2]: 257
B1: Fab VH1-46_IGHD3-10*01_IGHJ4*01 & O1_IGKJ1*01 (Fab, V domains shown)
VH: QVQLVQSGAEVKKPGASVKVSCKASGYTFTSYYMHWVRQAPGQGLEWMGIINPSGGSTSYAQKFQGRVTMTRDTSTSTVYMELSSLRSEDTAVYYCAREYYYGSGSYYNDYFDYWGQGTLVTVSS
VL: DIVMTQTPLSLPVTPGEPASISCRSSQSLLDSDDGNTYLDWYLQKPGQSPQLLIYTLSYRASGVPDRFSGSGSGTDFTLKISRVEAEDVGVYYCMQRIEFPSWTFGQGTKVEIKR
notes: Germline library Fab expressed in E. coli; VH was cloned into Plasmid A (CH1 constant region, His6 and Flag tags); The kappa VL was cloned into Plasmid C (kappa CL)

- ECL signal [3]: 3660
- ECL signal [4]: 5480
- ECL signal [5]: 3510
- ECL signal [6]: 4330
- ECL signal [7]: 4170
- ECL signal [8]: 7100
- ECL signal [9]: 4690
- ECL signal [10]: 4460
B2: Fab VH1-46_IGHD7-27*01_IGHJ2*01 & L6_IGKJ1*01 (Fab, V domains shown)
VH: QVQLVQSGAEVKKPGASVKVSCKASGYTFTSYYMHWVRQAPGQGLEWMGIINPSGGSTSYAQKFQGRVTMTRDTSTSTVYMELSSLRSEDTAVYYCARANWGYWYFDLWGRGTLVTVSS
VL: not shown
notes: Germline Fab made in E. coli; VH was cloned in Plasmid A (CH1 constant region, His6 and Flag tags) and the kappa VL in Plasmid C (kappa CL); Only the variable domains are tied to this Fab by name

- ECL signal [11]: 492 ECL signal
- ECL signal [12]: 315 ECL signal
- ECL signal [13]: 396 ECL signal
- ECL signal [14]: 424 ECL signal
- ECL signal [15]: 354 ECL signal
- ECL signal [16]: 324 ECL signal
- ECL signal [17]: 13200 ECL signal
- ECL signal [18]: 306 ECL signal
B3: Fab VH1-46_IGHD6-6*01_IGHJ1*01 & L6_IGKJ1*01 (Fab, V domains shown)
VH: QVQLVQSGAEVKKPGASVKVSCKASGYTFTSYYMHWVRQAPGQGLEWMGIINPSGGSTSYAQKFQGRVTMTRDTSTSTVYMELSSLRSEDTAVYYCAREEYSSSSAEYFQHWGQGTLVTVSS
VL: not shown
notes: Only variable domains are tied to the molecule; Tested as a Fab made in E. coli: heavy chain from Plasmid A (CH1 constant region, His6 and Flag tags), kappa light chain from Plasmid C (kappa CL); also called parent Hit Fab against DLL4; VH1-46_IGHD6-6*01_IGHJ1*01 & L6_IGKJ1*01 (parental)

Reference: patent US20120316071A1 (published 2012)
